One experiment has as its target HLA-B*46:01. The experiment can be described thus: IEDB peptide-MHC binding, purified MHC/direct/fluorescence; filed as Kd, often an IC50 or EC50 that approximates it; ≥ and ≤ were set here for values at or beyond the usual limits of such assays.
A further experiment addresses HLA-A*26:01. The description is as above.
For a further experiment, the target named is HLA-B*27:03. Described as above.
The next experiment concerns the target HLA-A*23:01. Described as above. The note with it: source organism: Salmonella enterica subsp. enterica serovar Typhimurium str. LT2.
The next experiment deals with HLA-A*02:19. Described as above.
Another experiment addresses HLA-A*02:03. The experiment is described as above.
A further experiment deals with HLA-B*15:17. Described as above. The note with it: source organism: Salmonella enterica subsp. enterica serovar Typhimurium str. LT2.
A further experiment addresses HLA-A*24:03. The experiment is described as above.
For experiment [1], the target named is HLA-B*15:01. Described as above.
For experiment [2], the target named is HLA-A*03:01. The description is as above.
For experiment [3], the target named is HLA-B*51:01. Described as above.
Another experiment deals with HLA-A*68:02. The description is as above. The note with it: source organism: Salmonella enterica subsp. enterica serovar Typhimurium str. LT2.
The target in a further experiment is HLA-A*29:02. The experiment is described as above.
A further experiment deals with HLA-A*02:16. The experiment is described as above.
The target in experiment [4] is HLA-A*02:01. Described as above.
The target in another experiment is HLA-A*69:01. The experiment is described as above. The note with it: source organism: Salmonella enterica subsp. enterica serovar Typhimurium str. LT2.
The target of the next experiment is HLA-B*18:01. The description is as above.
The target of the next experiment is HLA-B*57:01. Described as above. To be noted: source organism: Salmonella enterica subsp. enterica serovar Typhimurium str. LT2.
The target in another experiment is HLA-A*02:12. The description is as above.
The next experiment addresses HLA-A*02:11. The description is as above.
Another experiment has as its target HLA-B*39:01. Described as above. To be noted: source organism: Mycobacterium tuberculosis str. Haarlem.
The target in another experiment is HLA-B*07:02. Described as above. To be noted: source organism: Orthohantavirus hantanense.
For another experiment, the target named is HLA-B*45:06. The experiment can be described thus: IEDB peptide-MHC binding, purified MHC/competitive/fluorescence; filed as Kd, often an IC50 or EC50 that approximates it; ≥ and ≤ were set here for values at or beyond the usual limits of such assays.
The next experiment addresses HLA-C*04:01. The description is as above.
The target in the next experiment is HLA-B*15:42. Described as above.
A further experiment has as its target HLA-C*03:03. The experiment can be described thus: IEDB peptide-MHC binding, purified MHC/direct/fluorescence; filed as Kd, often an IC50 or EC50 that approximates it; ≥ and ≤ were set here for values at or beyond the usual limits of such assays.
The target in a further experiment is HLA-C*08:02. The description is as above. To be noted: source organism: Yersinia pestis Nepal516.
Another experiment deals with HLA-A*01:01. The experiment can be described thus: IEDB peptide-MHC binding, purified MHC/competitive/fluorescence; filed as Kd, often an IC50 or EC50 that approximates it; ≥ and ≤ were set here for values at or beyond the usual limits of such assays. To be noted: source organism: Yersinia pestis Nepal516.
The target in experiment [5] is HLA-B*51:01. The experiment is described as above. To be noted: source organism: Yersinia pestis Nepal516.
The target in experiment [6] is HLA-A*02:01. The experiment is described as above. To be noted: source organism: Yersinia pestis Nepal516.
The target of the next experiment is HLA-B*58:01. The experiment is described as above. To be noted: source organism: Yersinia pestis Nepal516.
For experiment [7], the target named is HLA-B*15:01. The experiment is described as above. The note with it: source organism: Salmonella enterica subsp. enterica serovar Typhi.
Experiment [8] has as its target HLA-A*03:01. The description is as above. The note with it: source organism: Salmonella enterica subsp. enterica serovar Typhi.
A further experiment has as its target HLA-B*83:01. The description is as above. To be noted: source organism: Salmonella enterica subsp. enterica serovar Typhi.
The target of another experiment is HLA-A*68:23. The description is as above. To be noted: source organism: Salmonella enterica subsp. enterica serovar Typhi.
The target in the next experiment is HLA-A*31:01. The description is as above. To be noted: source organism: Salmonella enterica subsp. enterica serovar Typhi.
[9] abbreviates: source organism: Salmonella enterica subsp. enterica serovar Typhimurium str. LT2.
The mark [10] stands for this setting: source organism: Mycobacterium tuberculosis str. Haarlem.
Where [11] appears, read: source organism: Hantaan virus 76-118.
Where [12] appears, read: source organism: Salmonella enterica subsp. enterica serovar Typhi.

The record followed here is the Immune Epitope Database (IEDB).

The term Kd denotes the concentration at which binding is half-saturated. As for FKYDSTKPL, the Kd with HLA-B*46:01 (setting [9]), in the experiment with HLA-A*26:01 (setting [9]), with HLA-B*27:03 (setting [9]), in the experiment with HLA-A*23:01, in the experiment with HLA-A*02:19 (setting [9]) and with HLA-A*02:03 (setting [9]) was not below 20 µM throughout. The dissociation constant (Kd) in the experiment with HLA-B*15:17, in the experiment with HLA-A*24:03 (setting [9]), with HLA-B*15:01 [1] (setting [9]), in the experiment with HLA-A*03:01 [2] (setting [9]), with HLA-B*51:01 [3] (setting [9]) and in the experiment with HLA-A*68:02 was not below 20 µM each time. For the same sequence, the Kd in the experiment with HLA-A*29:02 (setting [9]), with HLA-A*02:16 (setting [9]), in the experiment with HLA-A*02:01 [4] (setting [9]), with HLA-A*69:01, in the experiment with HLA-B*18:01 (setting [9]) and in the experiment with HLA-B*57:01 was not below 20 µM in each case. Further, the Kd in the experiment with HLA-A*02:12 (setting [9]) and in the experiment with HLA-A*02:11 (setting [9]) was not below 20 µM throughout.

Take MAVTAAPYI: the Kd with HLA-B*46:01 (setting [10]), with HLA-A*26:01 (setting [10]), with HLA-B*39:01, with HLA-B*27:03 (setting [10]), with HLA-A*02:19 (setting [10]) and with HLA-A*02:03 (setting [10]) was not below 20 µM throughout. Further, the Kd with HLA-A*24:03 (setting [10]) was not below 20 µM; with HLA-B*15:01 [1] (setting [10]) it was not below 20 µM; with HLA-A*03:01 [2] (setting [10]), not below 20 µM; with HLA-B*51:01 [3] (setting [10]) it was 0.103 µM; in the experiment with HLA-A*29:02 (setting [10]) it was not below 20 µM; with HLA-A*02:16 (setting [10]), not below 20 µM. Also, the Kd with HLA-A*02:01 [4] (setting [10]), with HLA-B*18:01 (setting [10]), in the experiment with HLA-A*02:12 (setting [10]) and with HLA-A*02:11 (setting [10]) was not below 20 µM throughout.

Consider TPGRYRTAV, for which the Kd with HLA-B*51:01 [3] (source organism: Orthohantavirus hantanense) was not below 20 µM; with HLA-B*07:02, not above 0.001 µM; with HLA-B*45:06 (setting [11]) it was not below 5 µM; in the experiment with HLA-C*04:01 (setting [11]) it was not below 5 µM; in the experiment with HLA-B*15:42 (setting [11]), not below 5 µM.

In turn, YISPIFIPM showed a Kd with HLA-C*03:03 (source organism: Rickettsia sibirica 246) not above 0.001 µM.

In the case of MTSELAALI, the Kd in the experiment with HLA-C*08:02 was 0.415 µM; with HLA-A*01:01 it was not below 20 µM; with HLA-B*51:01 [5], not below 20 µM; with HLA-A*02:01 [6], 0.0073 µM; with HLA-B*58:01 it was 0.0225 µM.

For LAYARGQAM, the Kd with HLA-C*03:03 (source organism: Human herpesvirus 4 strain B95-8) was not above 0.001 µM.

Take STFDLYVYR: the Kd with HLA-B*45:06 (setting [12]) was not below 5 µM; with HLA-C*04:01 (setting [12]) it was not below 5 µM; with HLA-B*15:01 [7] it was not below 20 µM; with HLA-A*03:01 [8], 3.21 µM; in the experiment with HLA-B*15:42 (setting [12]), not below 5 µM; in the experiment with HLA-B*83:01 it was not below 5 µM. Further, the Kd with HLA-A*68:23 amounted to 0.0139 µM; in the experiment with HLA-A*31:01, 0.0243 µM.
